Patent publication US10413588B2, “Probiotic function of human intelectin” (Wisconsin Alumni Research Foundation, priority 2015, dated 2019)

Columns and labels:
[1] = Microbial Glycan Microarray (MGMv2); assay type: binding, S. pneumonia; conditions: Strep-hIntL-1 50 μg/mL; α-Galf containing glycan
Protocol: (§1) Strep-hIntL-1 was used to interrogate the Microbial Glycan Microarray version 2 (MGMv2). Construction of the MGMv2 is previously described. Briefly, bacterial polysaccharide samples were dissolved and diluted to 0.5 mg/mL in printing buffer (150 mM sodium phosphate buffer (8.4)+0.005% Tween-20). Samples were immobilized on NETS-activated glass slides (SlideH, Schott/Nexterion) using a MicroGrid II (Digilab) contact microarray printer equipped with SMP-4B printing pins (Telechem). Six replicates of each bacterial glycan sample were printed. Covalent coupling of glycans to the surface was facilitated by incubation for 1 hour postprint at 100% relative humidity. The remaining reactive NHS-moieties were quenched using a blocking solution (50 mM ethanolamine in 50 mM borate buffer (9.2)). Blocked slides were stored at −20° C. until assays were performed. […] The Strep-Tag® II on bound hIntL-1 was detected using StrepMAB-Classic Chromeo647 (10 μg/mL, IBA GmbH Lifesciences) diluted in binding buffer applied directly to the array surface and allowed to incubate for 1 hour. […] Signal data was calculated as the average of 4 values after removing the high and low values of the 6 replicates. Data were plotted using Excel (Microsoft) as average Relative Fluorescence Units (RFU) versus print identification number. […]

[2] = hIntL-1 surface plasmon resonance (SPR); assay type: binding
Protocol: All hIntL-1 SPR was performed on a ProteOn XPR36 (Bio-Rad) at the University of Wisconsin-Madison Department of Biochemistry Biophysics Instrumentation Facility (BIF). To measure hIntL-1 binding, ProteOn NLC sensor chips (Bio-Rad) (NeutrAvidin coated chips) were used to capture carbohydrate-biotin ligand. All experiments presented here were conducted at surface saturated levels of ligand, ˜200 RU. In all experiments, captured biotin served as a control. Samples containing purified hIntL-1 were prepared by serial dilution into hIntL-1 SPR running buffer (20 mM HEPES (7.4) 150 mM NaCl, 1 mM CaCl2, and 0.005% tween-20). Surfaces were regenerated with short injections of 10 mM HCl. All data was interspot corrected and processed using the Bio-Rad ProteOn software package.

Lactobacillus reuteri = assay: Flow cytometry binding to microbiome strain; conditions: fixed cells; 15 μg/mL Strep-tagged-hIntL-1, 10 mM CaCl2 vs EDTA control
Protocol: (§2) The inventors have begun to examine the binding of hIntL-1 to bacteria known to reside in the human intestine. Strains of relevant bacteria were grown anaerobically. The samples are fixed using 1% formaldehyde for 30 min on ice. […] Fixed cells are exposed to Strep-tagged (IBS Lifesciences) -hIntL-1. The Strep-tag not necessary for function but added because it facilitates purification and detection. Cells were analyzed by flow cytometry on a BD FACSCalibur or LSRII. Bacterial cells were identified using either propidium iodide (PI) or DAPI. An anti-Strep-tag antibody conjugated to the fluorophore Oyster 645 nm was used to detect the population of bacteria bound by hIntL-1.
(§3) To determine whether observed binding is dependent on hIntL-1 interaction with microbial glycans, the inventors take advantage of critical role of calcium ions in hIntL-1 binding. The addition of the calcium ion chelator EDTA, which sequesters bound calcium ions, serves as an important specificity control. Fixed bacteria are incubated in 20 mM HEPES (pH 7.2), 150 mM NaCl, 10 mM CaCl2, 15 μg/mL Strep-tagged-hIntL-1, 0.1% bovine serum albumin (BSA), 0.05% Tween-20, 2 μg/mL StrepMAB-Classic conjugated to Oyster 645 (IBA Lifesciences, cat. no.: 2-1555-050). For the cells incubated in the absence of calcium ions, the following solution is used 20 mM HEPES (pH 7.2), 150 mM NaCl, 5 mM EDTA, 15 μg/mL Strep-tagged-hIntL-1, 0.1% bovine serum albumin (BSA), 0.05% tween-20, 2 μg/mL StrepMAB-Classic conjugated to Oyster 645 (IBA Lifesciences, cat. no.: 2-1555-050). Cell samples were analyzed by flow cytometry consecutively using an identical instrument setting. The percentages of unstained cells, cells stained in the presence of calcium ions, and cells stained in the presence of EDTA were directly compared. Increased hIntL-1 binding signal in the presence of calcium ions when compared to unstained cells or the EDTA sample indicates specific binding to the surface glycans of that strain of bacteria. FIG. 17 is representative of the data obtained. A list of bacteria bound by hIntL-1 can be found in Table 1. […]

[3] = system: Bacteroides xylanisolvens; assay: Flow cytometry binding to microbiome strain; conditions: fixed cells; 15 μg/mL Strep-tagged-hIntL-1, 10 mM CaCl2 vs EDTA control
Protocol: as §2, §3

Bifidobacterium dentium = assay: Flow cytometry binding to microbiome strain; conditions: fixed cells; 15 μg/mL Strep-tagged-hIntL-1, 10 mM CaCl2 vs EDTA control
Protocol: as §2, §3

[4] = Microbial Glycan Microarray (MGMv2); assay type: binding, Salmonella enterica; conditions: Strep-hIntL-1 50 μg/mL; terminal α-Galf residue
Protocol: as §1

B1: hIntL-1: human lectin intelectin-1, accession no. Q8WWA0; recombinant disulfide-linked trimer from HEK 293T cells, used also N-terminally Strep-tagged (Strep-hIntL-1) (protein, listed as Homo sapiens)
chain: MNQLSFLLFLIATTRGWSTDEANTYFKEWTCSSSPSLPRSCKEIKDECPSAFDGLYFLRTENGVIYQTFCDMTSGGGGWTLVASVHENDMRGKCTVGDRWSSQQGSKAVYPEGDGNWANYNTFGSAEAATSDDYKNPGYYDIQAKDLGIWHVPNKSPMQHWRNSSLLRYRTDTGFLQTLGHNLFGIYQKYPVKYGEGKCWTDNGPVIPVVYDFGDAQKTASYYSPYGQREFTAGFVQFRVFNNERAANALCAGMRVTGCNTEHHCIGGGGYFPEASPQQCGDFSGFDWSGYGTHVGYSSSREITEAAVLLFYR
- average signal on microbial glycan array [1]: −9.6 RFU
- SPR response to immobilized β-galactopyranose ([2]; attributed to the extended anomeric alkyl linker): small response
- binding to immobilized β-Galf by SPR ([2]; immobilized carbohydrate-biotin ligand, 1 mM CaCl2): robust binding
- binding of hIntL-1 to Lactobacillus reuteri by flow cytometry (Lactobacillus reuteri): binds
- binding of hIntL-1 to Bacteroides xylanisolvens by flow cytometry [3]: not
- binding of hIntL-1 to Bifidobacterium dentium by flow cytometry (Bifidobacterium dentium): binds
- signal on microbial glycan array [4]: 66 RFU
